Measured values from the supplement of paper PMC7877785.
± gives the uncertainty stated by the source.

Test: self-splicing fitness, log relative to wild type (ln ratio); higher = more splicing; Tetrahymena group I intron in knt gene, E. coli kanamycin selection, DiMSum; sequences stand for … in CUCUCU…GGAGGGAAAAGUUAUCAGGCAUGCACCUGGUAGCUAGUCUUUAAACCAAUAGAUUGCAUCGGUUUAAAAGGCAAGACCGUCAAAUUGCGGGAAAGGGGUCAACAGCCGUUCAGUACCAAGUCUCAGGGGAAACUUUGAGAUGGCCUUGCAAAGGGUAUGGUAAUAAGCUGACGGACAUGGUCCUAACCACGCAGCCAAGUCCUAAGUCAACAGAUCUUCUGUUGAUAUGGAUGCAGUUCACAGACUAAAUGUCGGUCGGGGAAGAUGUAUUCUUCUCAUAAGAUAUAGUCGGACCUCUCCUUAAUGGGAGCUAGCGGAUGAAGUGAUGCAACACUGGAGCCGCUGGGAACUAAUUUGUAUGCGAAAGUAUAUUGAUUAGUUUUGGAGUACUCGUGGUCG
How it was run: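 Six replicate transformations of E. coli BL21(DE3) with a pET-22b(+) library were grown overnight at 37°C or 30°C. The library randomised all eight P1ex-region intron nucleotides, the intron lying in the knt kanamycin-resistance gene, and plates were LB agar with or without 25 μg/mL kanamycin plus 100 μg/mL carbenicillin, 50 μM IPTG and 0.2% rhamnose. Pooled colonies were amplicon-sequenced on an Illumina HiSeq 2500, and fitness is the DiMSum error-weighted combination of wild-type-normalised replicate fold changes, kanamycin versus none.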

Sequence	self-splicing fitness (ln) (30 °C)	self-splicing fitness (ln) (37 °C)
AAAAAGCAAUAUUACGAACA	-0.675 ± 0.092	-0.407 ± 0.11
AAAAAGCAAUAUUACGACCU	0.273 ± 0.072	0.617 ± 0.089
AAAAAGCAAUAUUACGACGU	0.102 ± 0.054	0.768 ± 0.067
AAAAAGCAAUAUUACGAGUG	-1.35 ± 0.088	-1.18 ± 0.09
AAAAAGCAAUAUUACGAUAU	-0.534 ± 0.061	-0.545 ± 0.079
AAAAAGCAAUAUUACGCAUU	-2.5 ± 0.1	-1.8 ± 0.11
AAAAAGCAAUAUUACGCCAA	-2.26 ± 0.17	-1.33 ± 0.12
AAAAAGCAAUAUUACGCCGU	-0.957 ± 0.064	-0.392 ± 0.072
AAAAAGCAAUAUUACGCGGC	-3.53 ± 0.26	-2.15 ± 0.27
AAAAAGCAAUAUUACGCUAG	-1.41 ± 0.086	-0.619 ± 0.085
AAAAAGCAAUAUUACGGAGU	-2.15 ± 0.13	-1.63 ± 0.13
AAAAAGCAAUAUUACGGCCA	-0.43 ± 0.11	-0.0922 ± 0.15
AAAAAGCAAUAUUACGGUAC	-3.24 ± 0.11	-1.76 ± 0.094
AAAAAGCAAUAUUACGGUUG	-2.28 ± 0.1	-1.58 ± 0.13
AAAAAGCAAUAUUACGUAAG	-1.08 ± 0.061	-0.0629 ± 0.081
AAAAAGCAAUAUUACGUCCC	-0.842 ± 0.15	0.362 ± 0.23
AAAAAGCAAUAUUACGUCGC	-2.7 ± 0.26	-1.34 ± 0.17
AAAAAGCAAUAUUACGUGCA	-0.742 ± 0.056	-0.201 ± 0.072
AAAAAGCAAUAUUACGUUAU	-2.13 ± 0.071	-1.55 ± 0.1
AAAAAGCAAUAUUACGUUCU	-0.294 ± 0.066	-0.0468 ± 0.083
AAAAAGCAAUAUUACGUUUG	-2.65 ± 0.097	-2.01 ± 0.12
AAACAGCAAUAUUACGACCA	-0.58 ± 0.061	-0.0342 ± 0.082
AAACAGCAAUAUUACGACUG	-1.64 ± 0.064	-0.795 ± 0.071
AAACAGCAAUAUUACGAUGG	-3.16 ± 0.15	-1.27 ± 0.16
AAACAGCAAUAUUACGCAUU	-2.68 ± 0.094	-1.08 ± 0.094

Sequence	self-splicing fitness (ln) (30 °C)	self-splicing fitness (ln) (37 °C)
AAACAGCAAUAUUACGCCUA	-1.13 ± 0.086	-0.0496 ± 0.075
AAACAGCAAUAUUACGCCUC	-2.55 ± 0.15	-1.49 ± 0.15
AAACAGCAAUAUUACGCCUG	-1.99 ± 0.096	-0.538 ± 0.1
AAACAGCAAUAUUACGCGGG	-2.69 ± 0.097	-0.988 ± 0.073
AAACAGCAAUAUUACGCUAA	-1.6 ± 0.084	-1.58 ± 0.1
AAACAGCAAUAUUACGGACC	-1.94 ± 0.078	-1.08 ± 0.095
AAACAGCAAUAUUACGGCAA	-0.944 ± 0.096	-0.612 ± 0.11
AAACAGCAAUAUUACGGCUC	-0.311 ± 0.068	0.201 ± 0.095
AAACAGCAAUAUUACGGGAU	-2.65 ± 0.1	-1.69 ± 0.087
AAACAGCAAUAUUACGGGGA	-2.79 ± 0.1	-1.63 ± 0.081
AAACAGCAAUAUUACGUAGC	-4.24 ± 0.16	-2.98 ± 0.18
AAACAGCAAUAUUACGUAGG	-1.85 ± 0.057	-1.34 ± 0.08
AAACAGCAAUAUUACGUCCC	-1.44 ± 0.17	0.29 ± 0.17
AAACAGCAAUAUUACGUCGC	-3.37 ± 0.21	-2.92 ± 0.23
AAACAGCAAUAUUACGUCUU	-0.362 ± 0.054	0.322 ± 0.071
AAACAGCAAUAUUACGUGCU	-3.52 ± 0.2	-1.91 ± 0.14
AAACAGCAAUAUUACGUGGU	-4.06 ± 0.14	-2.31 ± 0.15
AAAGAGCAAUAUUACGAAAG	-3.63 ± 0.24	-3.18 ± 0.24
AAAGAGCAAUAUUACGAACG	-3.87 ± 0.21	-1.74 ± 0.13
AAAGAGCAAUAUUACGAAGU	-3.28 ± 0.38	-2.05 ± 0.32
AAAGAGCAAUAUUACGAGAC	-3.51 ± 0.35	-2.11 ± 0.27
AAAGAGCAAUAUUACGCACA		-0.789 ± 0.28
AAAGAGCAAUAUUACGCAGG	-3.47 ± 0.24	-3.45 ± 0.35
AAAGAGCAAUAUUACGCAUG	-2.55 ± 0.18	-1.7 ± 0.098
AAAGAGCAAUAUUACGCCGA	-1.81 ± 0.29	-2.33 ± 0.34

Sequence	self-splicing fitness (ln) (30 °C)	self-splicing fitness (ln) (37 °C)
AAAGAGCAAUAUUACGCGAG	-1.87 ± 0.12	-1.58 ± 0.13
AAAGAGCAAUAUUACGCGCG	-2.69 ± 0.17	-1.65 ± 0.17
AAAGAGCAAUAUUACGCUGG	-4.07 ± 0.32	-1.89 ± 0.31
AAAGAGCAAUAUUACGGAAG	-3.76 ± 0.21	-2.62 ± 0.33
AAAGAGCAAUAUUACGGAGA	-2.99 ± 0.22	-1.98 ± 0.21
AAAGAGCAAUAUUACGGCCG	-1.78 ± 0.18	-0.0792 ± 0.23
AAAGAGCAAUAUUACGGGAC	-3.56 ± 0.38	-1.96 ± 0.22
AAAGAGCAAUAUUACGGGAU	-4.18 ± 0.23	-2.09 ± 0.17
AAAGAGCAAUAUUACGGUCG	-2.47 ± 0.16	-1.58 ± 0.15
AAAGAGCAAUAUUACGGUGA	-3.87 ± 0.22	-1.93 ± 0.14
AAAGAGCAAUAUUACGUACG	-3.6 ± 0.44	-1.9 ± 0.41
AAAGAGCAAUAUUACGUAGC	-4.35 ± 0.27	-2.45 ± 0.24
AAAGAGCAAUAUUACGUUUC	-3.41 ± 0.18	-2.55 ± 0.24
AAAUAGCAAUAUUACGAGCA	-1.4 ± 0.11	-0.127 ± 0.11
AAAUAGCAAUAUUACGAGCG	-1.75 ± 0.17	-0.208 ± 0.15
AAAUAGCAAUAUUACGAGUU	-1.22 ± 0.11	-0.896 ± 0.11
AAAUAGCAAUAUUACGCACA	-0.634 ± 0.097	-0.2 ± 0.14
AAAUAGCAAUAUUACGCCAU	-3.75 ± 0.25	-2.36 ± 0.24
AAAUAGCAAUAUUACGCCUC	-1.6 ± 0.14	-0.0982 ± 0.17
AAAUAGCAAUAUUACGCGAG	-1.93 ± 0.17	-0.639 ± 0.14
AAAUAGCAAUAUUACGCUUG	-1.77 ± 0.087	-0.8 ± 0.12
AAAUAGCAAUAUUACGGCAC	-0.691 ± 0.1	0.0337 ± 0.12
AAAUAGCAAUAUUACGGCAG	-1.67 ± 0.15	-0.465 ± 0.16
AAAUAGCAAUAUUACGGCGA	-0.48 ± 0.11	-0.0146 ± 0.12
AAAUAGCAAUAUUACGGCGU	-0.263 ± 0.071	-0.0261 ± 0.095
